From patent US20110318339A1

Assays:
[1] = target: rHuman Notch-1/Fc Chimera, CF (Cat# 3647-TK) (human) (UniProt P46531); test: Multispot ECL; Fab 280 nM
[2] = target: rHuman ErbB2/Fc Chimera, CF (Cat# 1129-ER) (human) (UniProt P04626); test: Multispot ECL; Fab 280 nM
[3] = target: rHuman IGF-1 sR, (IGF-1 sR), CF (Cat# 391-GR) (human) (UniProt P08069); test: Multispot ECL; Fab 280 nM
[4] = target: rHuman P-Cadherin/Fc Chimera, CF (Cat# 861-PC) (human) (UniProt P22223); test: Multispot ECL; Fab 280 nM
[5] = target: rHuman CD44/Fc Chimera, CF (Cat# 3660-CD) (human) (UniProt P16070); test: Multispot ECL; Fab 280 nM
[6] = target: rHuman Notch-1/Fc Chimera, CF (Cat# 3647-TK) (human) (UniProt P46531); test: Multispot ECL; Fab 4.375 nM
[7] = target: rHuman ErbB2/Fc Chimera, CF (Cat# 1129-ER) (human) (UniProt P04626); test: Multispot ECL; Fab 4.375 nM
[8] = target: rHuman IGF-1 sR, (IGF-1 sR), CF (Cat# 391-GR) (human) (UniProt P08069); test: Multispot ECL; Fab 4.375 nM
[9] = target: rHuman P-Cadherin/Fc Chimera, CF (Cat# 861-PC) (human) (UniProt P22223); test: Multispot ECL; Fab 4.375 nM
[10] = target: rHuman CD44/Fc Chimera, CF (Cat# 3660-CD) (human) (UniProt P16070); test: Multispot ECL; Fab 4.375 nM
[11] = target: rHuman Notch-1/Fc Chimera, CF (Cat# 3647-TK) (human) (UniProt P46531); test: Multispot ECL; Fab 70 nM
[12] = target: rHuman ErbB2/Fc Chimera, CF (Cat# 1129-ER) (human) (UniProt P04626); test: Multispot ECL; Fab 70 nM
[13] = target: rHuman IGF-1 sR, (IGF-1 sR), CF (Cat# 391-GR) (human) (UniProt P08069); test: Multispot ECL; Fab 70 nM
[14] = target: rHuman P-Cadherin/Fc Chimera, CF (Cat# 861-PC) (human) (UniProt P22223); test: Multispot ECL; Fab 70 nM
[15] = target: rHuman CD44/Fc Chimera, CF (Cat# 3660-CD) (human) (UniProt P16070); test: Multispot ECL; Fab 70 nM
[16] = target: rHuman Notch-1/Fc Chimera, CF (Cat# 3647-TK) (human) (UniProt P46531); test: Multispot ECL; Fab 17.5 nM
[17] = target: rHuman ErbB2/Fc Chimera, CF (Cat# 1129-ER) (human) (UniProt P04626); test: Multispot ECL; Fab 17.5 nM
[18] = target: rHuman IGF-1 sR, (IGF-1 sR), CF (Cat# 391-GR) (human) (UniProt P08069); test: Multispot ECL; Fab 17.5 nM
[19] = target: rHuman P-Cadherin/Fc Chimera, CF (Cat# 861-PC) (human) (UniProt P22223); test: Multispot ECL; Fab 17.5 nM
[20] = target: rHuman CD44/Fc Chimera, CF (Cat# 3660-CD) (human) (UniProt P16070); test: Multispot ECL; Fab 17.5 nM
[21] = target: rHuman ErbB2/Fc Chimera, CF (Cat# 1129-ER) (human) (UniProt P04626); test: Multispot ECL; Fab 0.096 µM
[22] = target: rHuman IGF-1 sR, (IGF-1 sR), CF (Cat# 391-GR) (human) (UniProt P08069); test: Multispot ECL; Fab 0.096 µM
[23] = target: rHuman HGF R/c-MET/Fc Chimera, CF (Cat# 358-MT/CF) (human) (UniProt P08581); test: Multispot ECL; Fab 0.096 µM
[24] = target: rHuman ErbB2/Fc Chimera, CF (Cat# 1129-ER) (human) (UniProt P04626); test: Multispot ECL; Fab 0.0192 µM
[25] = target: rHuman IGF-1 sR, (IGF-1 sR), CF (Cat# 391-GR) (human) (UniProt P08069); test: Multispot ECL; Fab 0.0192 µM
[26] = target: rHuman HGF R/c-MET/Fc Chimera, CF (Cat# 358-MT/CF) (human) (UniProt P08581); test: Multispot ECL; Fab 0.0192 µM
[27] = target: rHuman ErbB2/Fc Chimera, CF (Cat# 1129-ER) (human) (UniProt P04626); test: Multispot ECL; Fab […]
[28] = target: rHuman IGF-1 sR, (IGF-1 sR), CF (Cat# 391-GR) (human) (UniProt P08069); test: Multispot ECL; Fab […]
[29] = target: rHuman HGF R/c-MET/Fc Chimera, CF (Cat# 358-MT/CF) (human) (UniProt P08581); test: Multispot ECL; Fab […]
[30] = target: rHuman ErbB2/Fc Chimera, CF (Cat# 1129-ER) (human) (UniProt P04626); test: Multispot ECL; Fab 0.01859 µM
[31] = target: rHuman IGF-1 sR, (IGF-1 sR), CF (Cat# 391-GR) (human) (UniProt P08069); test: Multispot ECL; Fab 0.01859 µM
[32] = target: rHuman HGF R/c-MET/Fc Chimera, CF (Cat# 358-MT/CF) (human) (UniProt P08581); test: Multispot ECL; Fab 0.01859 µM
[33] = target: rHuman ErbB2/Fc Chimera, CF (Cat# 1129-ER) (human) (UniProt P04626); test: Multispot ECL; Fab 0.07438 µM
[34] = target: rHuman IGF-1 sR, (IGF-1 sR), CF (Cat# 391-GR) (human) (UniProt P08069); test: Multispot ECL; Fab 0.07438 µM
[35] = target: rHuman HGF R/c-MET/Fc Chimera, CF (Cat# 358-MT/CF) (human) (UniProt P08581); test: Multispot ECL; Fab 0.07438 µM
[36] = target: rHuman ErbB2/Fc Chimera, CF (Cat# 1129-ER) (human) (UniProt P04626); test: Multispot ECL; Fab 1.19 µM
[37] = target: rHuman IGF-1 sR, (IGF-1 sR), CF (Cat# 391-GR) (human) (UniProt P08069); test: Multispot ECL; Fab 1.19 µM
[38] = target: rHuman HGF R/c-MET/Fc Chimera, CF (Cat# 358-MT/CF) (human) (UniProt P08581); test: Multispot ECL; Fab 1.19 µM
[39] = target: rHuman ErbB2/Fc Chimera, CF (Cat# 1129-ER) (human) (UniProt P04626); test: Multispot ECL; Fab 0.2975 µM
[40] = target: rHuman IGF-1 sR, (IGF-1 sR), CF (Cat# 391-GR) (human) (UniProt P08069); test: Multispot ECL; Fab 0.2975 µM
[41] = target: rHuman HGF R/c-MET/Fc Chimera, CF (Cat# 358-MT/CF) (human) (UniProt P08581); test: Multispot ECL; Fab 0.2975 µM
[42] = target: rHuman Notch-1/Fc Chimera, CF (Cat# 3647-TK) (human) (UniProt P46531); test: Multispot ECL; Fab 0.1275 µM
[43] = target: rHuman Erythropoietin R/Fc Chimera, CF (Cat# 963-ER) (human) (UniProt P19235); test: Multispot ECL; Fab 0.1275 µM
[44] = target: rHuman IGF-1 sR, (IGF-1 sR), CF (Cat# 391-GR) (human) (UniProt P08069); test: Multispot ECL; Fab 0.1275 µM
[45] = target: rHuman P-Cadherin/Fc Chimera, CF (Cat# 861-PC) (human) (UniProt P22223); test: Multispot ECL; Fab 0.1275 µM
[46] = target: rHuman EGF R/Fc Chimera, CF (Cat# 344-ER) (human) (UniProt P00533); test: Multispot ECL; Fab 0.1275 µM
[47] = target: rHuman Notch-1/Fc Chimera, CF (Cat# 3647-TK) (human) (UniProt P46531); test: Multispot ECL; Fab […]
[48] = target: rHuman Erythropoietin R/Fc Chimera, CF (Cat# 963-ER) (human) (UniProt P19235); test: Multispot ECL; Fab […]
[49] = target: rHuman P-Cadherin/Fc Chimera, CF (Cat# 861-PC) (human) (UniProt P22223); test: Multispot ECL; Fab […]
[50] = target: rHuman EGF R/Fc Chimera, CF (Cat# 344-ER) (human) (UniProt P00533); test: Multispot ECL; Fab […]
[51] = target: rHuman Notch-1/Fc Chimera, CF (Cat# 3647-TK) (human) (UniProt P46531); test: Multispot ECL; Fab 0.51 µM
[52] = target: rHuman Erythropoietin R/Fc Chimera, CF (Cat# 963-ER) (human) (UniProt P19235); test: Multispot ECL; Fab 0.51 µM
[53] = target: rHuman IGF-1 sR, (IGF-1 sR), CF (Cat# 391-GR) (human) (UniProt P08069); test: Multispot ECL; Fab 0.51 µM
[54] = target: rHuman P-Cadherin/Fc Chimera, CF (Cat# 861-PC) (human) (UniProt P22223); test: Multispot ECL; Fab 0.51 µM
[55] = target: rHuman EGF R/Fc Chimera, CF (Cat# 344-ER) (human) (UniProt P00533); test: Multispot ECL; Fab 0.51 µM
[56] = target: rHuman Notch-1/Fc Chimera, CF (Cat# 3647-TK) (human) (UniProt P46531); test: Multispot ECL; Fab 0.03188 µM
[57] = target: rHuman Erythropoietin R/Fc Chimera, CF (Cat# 963-ER) (human) (UniProt P19235); test: Multispot ECL; Fab 0.03188 µM
[58] = target: rHuman IGF-1 sR, (IGF-1 sR), CF (Cat# 391-GR) (human) (UniProt P08069); test: Multispot ECL; Fab 0.03188 µM
[59] = target: rHuman P-Cadherin/Fc Chimera, CF (Cat# 861-PC) (human) (UniProt P22223); test: Multispot ECL; Fab 0.03188 µM
[60] = target: rHuman EGF R/Fc Chimera, CF (Cat# 344-ER) (human) (UniProt P00533); test: Multispot ECL; Fab 0.03188 µM

Sequence of rHuman Erythropoietin R/Fc Chimera, CF (Cat# 963-ER) (human) (P19235 25-250, change not shown): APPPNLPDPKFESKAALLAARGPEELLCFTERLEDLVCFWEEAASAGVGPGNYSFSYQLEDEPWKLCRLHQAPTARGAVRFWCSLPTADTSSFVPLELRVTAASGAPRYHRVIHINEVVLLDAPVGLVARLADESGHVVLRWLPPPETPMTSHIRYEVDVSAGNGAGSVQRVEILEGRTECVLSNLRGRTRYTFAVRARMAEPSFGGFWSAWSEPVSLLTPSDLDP

## Fab VH1-46_IGHD2-15*01_IGHJ2*01 & L12_IGKJ1*01
[1]
  ECL signal: 4380
[2]
  ECL signal: 3950
[3]
  ECL signal: 3530
[4]
  ECL signal: 5400
[5]
  ECL signal: 4070
[6]
  ECL signal: 480
[7]
  ECL signal: 384
[8]
  ECL signal: 369
[9]
  ECL signal: 469
[10]
  ECL signal: 424
[11]
  ECL signal: 1490
[12]
  ECL signal: 1360
[13]
  ECL signal: 1320
[14]
  ECL signal: 1820
[15]
  ECL signal: 1370
[16]
  ECL signal: 680
[17]
  ECL signal: 541
[18]
  ECL signal: 626
[19]
  ECL signal: 949
[20]
  ECL signal: 664

## Fab VH1-46_IGHD6-13*01_IGHJ4*01 & A27_IGKJ1*01
[21]
  ECL signal: 3360
[22]
  ECL signal: 2450
[23]
  ECL signal: 2330
[24]
  ECL signal: 2310
[25]
  ECL signal: 1830
[26]
  ECL signal: 1580
[27]
  ECL signal: 11300
[28]
  ECL signal: 8930
[29]
  ECL signal: 8000

## Fab VH1-46_IGHD6-13*01_IGHJ4*01 & L2_IGKJ1*01
[30]
  ECL signal: 5530
[31]
  ECL signal: 3780
[32]
  ECL signal: 4570
[33]
  ECL signal: 7550
[34]
  ECL signal: 5800
[35]
  ECL signal: 6610
[36]
  ECL signal: 38400
[37]
  ECL signal: 35200
[38]
  ECL signal: 45500
[39]
  ECL signal: 15100
[40]
  ECL signal: 17400
[41]
  ECL signal: 17400

## Fab VH4-34_IGHD7-27*01_IGHJ4*01 & L5_IGKJ1*01
[42]
  ECL signal: 1500
[43]
  ECL signal: 1070
[44]
  ECL signal: 1040
[45]
  ECL signal: 957
[46]
  ECL signal: 1060
[47]
  ECL signal: 654
[48]
  ECL signal: 566
[28]
  ECL signal: 564
[49]
  ECL signal: 502
[50]
  ECL signal: 530
[51]
  ECL signal: 2770
[52]
  ECL signal: 2620
[53]
  ECL signal: 2240
[54]
  ECL signal: 2390
[55]
  ECL signal: 2360
[56]
  ECL signal: 849
[57]
  ECL signal: 789
[58]
  ECL signal: 765
[59]
  ECL signal: 775
[60]
  ECL signal: 694
